According to paper PMC6062542, “Structural and Biochemical Characterization of AaL, a Quorum Quenching Lactonase with Unusual Kinetic Properties” (Scientific Reports, 2018):

T1: AaL (Alicyclobacillus acidoterrestris, UniProt T0BMH6)
T1 construct: gene K1I37_05175; codon-optimized synthetic gene; N-terminal Strep tag (WSHPQFEK) + TEV site (ENLYFQS), tag cleaved with TEV; homodimer
T1 sequence (T0BMH6 1-282): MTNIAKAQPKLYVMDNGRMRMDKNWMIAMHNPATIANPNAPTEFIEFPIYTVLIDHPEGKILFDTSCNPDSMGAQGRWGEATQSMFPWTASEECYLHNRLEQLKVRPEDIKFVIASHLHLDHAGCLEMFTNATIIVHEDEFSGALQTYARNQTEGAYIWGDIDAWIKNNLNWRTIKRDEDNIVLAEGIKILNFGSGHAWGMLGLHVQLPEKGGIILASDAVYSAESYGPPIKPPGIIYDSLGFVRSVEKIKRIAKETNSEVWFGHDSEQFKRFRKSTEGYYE


Assays:
[1] = molecular target: T1, AaL; assay: X-ray crystal structure, […] Å, crystal soak; assay type: binding; conditions: soaked 10 min with 20 mM C6-AHL; active site, two cobalt cations; modelled occupancy 0.7
[2] = substrate: CCCC1CCC(=O)O1; assay: purified protein; assay type: biochemical, Alicyclobacillus acidoterrestris; conditions: 2.5 mM Bicine pH 8.3, 150 mM NaCl, 0.2 mM cresol purple, 0.5% DMSO, 0.2 mM CoCl2, room temperature
[3] = substrate: CCCCCC1CCCC(=O)O1; assay: purified protein; assay type: biochemical, Alicyclobacillus acidoterrestris; conditions: 2.5 mM Bicine pH 8.3, 150 mM NaCl, 0.2 mM cresol purple, 0.5% DMSO, 0.2 mM CoCl2, room temperature
[4] = substrate: O=C1CCCCO1; assay: purified protein; assay type: biochemical, Alicyclobacillus acidoterrestris; conditions: 2.5 mM Bicine pH 8.3, 150 mM NaCl, 0.2 mM cresol purple, 0.5% DMSO, 0.2 mM CoCl2, room temperature
[5] = substrate: O=C1CCCO1; assay: purified protein; assay type: biochemical, Alicyclobacillus acidoterrestris; conditions: 2.5 mM Bicine pH 8.3, 150 mM NaCl, 0.2 mM cresol purple, 0.5% DMSO, 0.2 mM CoCl2, room temperature

Molecule | X-ray crystal structure, 1.8 Å, crystal soak [1] | Km [2] [µM] | Km [3] [µM] | kcat [3] [s⁻¹] | kcat/Km [3] [M⁻¹ s⁻¹] | Km [4] [µM] | kcat [4] [s⁻¹] | kcat/Km [4] [M⁻¹ s⁻¹] | Km [5] [µM] | kcat [5] [s⁻¹] | kcat/Km [5] [M⁻¹ s⁻¹]
CCCCCC(=O)N[C@H]1CCOC1=O [C6-AHL] | the structure of AaL bound to C6-AHL could be solved |  |  |  |  |  |  |  |  |  | 
AaL (Alicyclobacillus acidoterrestris ATCC 49025) (protein, codon-optimized synthetic gene; N-terminal Strep tag (WSHPQFEK) + TEV site (ENLYFQS), tag cleaved with TEV; homodimer) MTNIAKAQPKLYVMDNGRMRMDKNWMIAMHNPATIANPNAPTEFIEFPIYTVLIDHPEGKILFDTSCNPDSMGAQGRWGEATQSMFPWTASEECYLHNRLEQLKVRPEDIKFVIASHLHLDHAGCLEMFTNATIIVHEDEFSGALQTYARNQTEGAYIWGDIDAWIKNNLNWRTIKRDEDNIVLAEGIKILNFGSGHAWGMLGLHVQLPEKGGIILASDAVYSAESYGPPIKPPGIIYDSLGFVRSVEKIKRIAKETNSEVWFGHDSEQFKRFRKSTEGYYE |  | 36.9 ± 8.9 | 18.5 ± 0.4 | 8.4 ± 0.6 | 450000 ± 100000 | 18.7 ± 0.4 | 8.4 ± 0.4 | 450000 ± 90000 | 171.0 ± 36.1 | 23.5 ± 1.7 | 140000 ± 30000
